# Reference: patent US20220064332A1 (INSERM INSTITUT NATIONAL DE LA SANT ET DE LA RECHERCHE M …, published 2022)
# T1: 4-kDa GST-cath-D pro-fragment (UniProt P07339 21-64, limits assumed)
# T1 construct: domain: 4-kDa pro-fragment; Produced in E. coli BL21
# T1 chain (looked up): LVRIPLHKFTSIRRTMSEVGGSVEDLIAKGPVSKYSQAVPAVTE
# B1: anti-cath-D antibody E2 (fully human IgG1λ) (antibody, V domains shown)
# VH: EVQLVESGGSLVKPGGSLRLSCAASGFTFSNSYMNWVRQAPGKGLEWISYISGSSRYISYADFVKGRFTISRDNATNSLYLQMNSLRAEDTAVYYCVRSSNSYFGGGMDVWGRGTLVTVSS
# VL: QSVLTQPASVSGSPGQSITISCAGTSSDVGGSYGVSWYQQHPGKAPKLMIYGDSYRPSGVSNRFSGSKSGNTASLTISGLQAEDEADYYCSSYTNYSTRVFGGGTKLAVL
# How the values were obtained:
# [1] = target: T2, 14-kDa light chain GSTcath-D (UniProt P07339 65-162, limits assumed); test: immunoprecipitation of GST-cath-D fusion fragments
# T2 construct: domain: 14-kDa light chain; Produced in E. coli BL21
# T2 sequence (P07339 65-162 limits assumed): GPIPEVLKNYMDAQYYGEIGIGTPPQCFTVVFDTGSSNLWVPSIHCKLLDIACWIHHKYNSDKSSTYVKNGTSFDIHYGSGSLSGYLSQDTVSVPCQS
# [2] = target: T1, 4-kDa GST-cath-D pro-fragment; test: immunoprecipitation of GST-cath-D fusion fragments
# [3] = target: T3, human 52-kDa pro-cath-D secreted from MDA-MB-231 cells (human, UniProt P07339 21-412); test: sandwich ELISA: M2E8 capture of pro-cath-D from MDA-MB-231 conditioned medium, serial dilutions of IgG, anti-human Fc-HRP
# T3 construct: domain: 52-kDa pro-cath-D; Captured from conditioned medium by the M2E8 antibody in the sandwich ELISA; also called secreted human 52-kDa pro-cath-D
# Method: Cells were cultured in DMEM with 10% fetal calf serum (FCS, GibcoBRL). To produce conditioned medium, cells were grown to 90% confluence in DMEM medium with 10% FCS, and conditioned medium was centrifuged at 800×g for 10 min. For sandwich ELISA, 96-well plates were coated with M2E8 antibody in PBS (500 ng/well) at 4° C. overnight. After blocking non-specific sites with PBST/1% BSA, conditioned medium was added at 4° C. for 2 h. […] Cath-D was quantified in TNBC cytosols by sandwich ELISA, as described above, after coating with the D7E3 antibody in PBS (200 ng/well) and with the M1G8 antibody conjugated to HRP (1/80), and using recombinant pro-cath-D (1.25-15 ng/ml) for reference (6). TNBC cytosols were previously prepared and frozen (25). GST-cath-D fusion proteins were produced in the E. coli B strain BL21 as described (9).
binder,measurement,setting,value
B1,binding result,[1],no binding
same,binding result,[2],no binding
same,EC50,[3],1.2 nM
